{
  "source": "paper PMC5141367",
  "about": "“Structural decoding of netrin-4 reveals a regulatory function towards mature basement membranes” (Nature Communications, 2016)",
  "molecules": {"B1": {"name": "full-length Net4 (Net4-FL) (natural protein, Mus musculus, UniProt Q9JI33 20-628, looked up)", "chain": "LNGVAGANSRCEKACNPRMGNLALGRKLRADTMCGQNATELFCFYSENADLTCRQPKCDKCNAAHSHLAHPPSAMADSSFRFPRTWWQSAEDVHREKIQLDLEAEFYFTHLIMVFKSPRPAAMVLDRSQDFGKTWKPYKYFATNCSATFGLEDDVVKKGAICTSRYSNPFPCTGGEVIFRALSPPYDIENPYSAKVQEQLKITNLRVRLLKRQSCPCQINDLNAKPHHFMHYAVYDFIVKGSCFCNGHADQCLPVEGFRPIKAPGAFHVVHGRCMCKHNTAGSHCQHCAPLYNDRPWEAADGRTGAPNECRTCKCNGHADTCHFDVNVWEASGNRSGGVCNNCQHNTEGQHCQRCKPGFYRDLRRPFSAPDACKACSCHPVGSAILPFSSVTFCDPSNGDCPCKPGVAGPHCDRCMVGYWGFGDYGCRPCDCAGSCDPLTGDCISSNADVDWYHEVPAFHSMHNKSEPSWEWEDEQGFSALRHSGKCECKEQVLGNPKAFCGMKYSYVLKIKILSAHDKGSHAEVNVKIKKVLKSTKLKILRGKRTLYPESWTNRGCTCPILNPGLEYLVAGHEDVRTGKLIVNMKSFVQHWKPALGRRVMHILKRDCV", "notes": "also called netrin-4; wild-type Net4; source: HEK293, stably transfected, purified (streptactin-sepharose, thrombin digestion, SEC); not shown: double Strep II, N-terminal, cleaved"}, "B2": {"name": "laminin γ1 short arm fragment (γ1LN-LEa1-4) (domain or fragment, Mus musculus, UniProt P02468 34-492, looked up)", "chain": "AMDECADEGGRPQRCMPEFVNAAFNVTVVATNTCGTPPEEYCVQTGVTGVTKSCHLCDAGQQHLQHGAAFLTDYNNQADTTWWQSQTMLAGVQYPNSINLTLHLGKAFDITYVRLKFHTSRPESFAIYKRTREDGPWIPYQYYSGSCENTYSKANRGFIRTGGDEQQALCTDEFSDISPLTGGNVAFSTLEGRPSAYNFDNSPVLQEWVTATDIRVTLNRLNTFGDEVFNEPKVLKSYYYAISDFAVGGRCKCNGHASECVKNEFDKLMCNCKHNTYGVDCEKCLPFFNDRPWRRATAESASESLPCDCNGRSQECYFDPELYRSTGHGGHCTNCRDNTDGAKCERCRENFFRLGNTEACSPCHCSPVGSLSTQCDSYGRCSCKPGVMGDKCDRCQPGFHSLTEAGCRPCSCDLRGSTDECNVETGRCVCKDNVEGFNCERCKPGFFNLESSNPKGCTP", "notes": "also called Lmγ1; N-terminal laminin γ1 fragment; source: HEK293, stably transfected, purified (streptactin-sepharose, thrombin digestion, SEC); not shown: double Strep II, N-terminal, cleaved"}},
  "key": {"[1]": {"molecular_target": "laminin γ1 (UniProt P02468)", "settings": "cited from earlier work"}, "[2]": {"molecular_target": "laminin γ1 short arm fragment (γ1LN-LEa1-4) (Mus musculus) (UniProt P02468)", "experiment": "not stated; binding assay of Supplementary Fig. 6c; method not given"}, "[3]": {"molecular_target": "B2", "experiment": "SEC; analytical size-exclusion chromatography of single proteins and of mixtures", "settings": "both partners purified"}, "[4]": {"molecular_target": "B2", "experiment": "not stated; binding assays of Supplementary Fig. 6a,b; methods not shown (the author contributions name SPR measurements)", "settings": "both partners purified"}, "[5]": {"molecular_target": "T1, laminin γ1 short arm fragment (γ1LN-LEa1-4) (Mus musculus, UniProt P02468 34-492)", "T1 chain": "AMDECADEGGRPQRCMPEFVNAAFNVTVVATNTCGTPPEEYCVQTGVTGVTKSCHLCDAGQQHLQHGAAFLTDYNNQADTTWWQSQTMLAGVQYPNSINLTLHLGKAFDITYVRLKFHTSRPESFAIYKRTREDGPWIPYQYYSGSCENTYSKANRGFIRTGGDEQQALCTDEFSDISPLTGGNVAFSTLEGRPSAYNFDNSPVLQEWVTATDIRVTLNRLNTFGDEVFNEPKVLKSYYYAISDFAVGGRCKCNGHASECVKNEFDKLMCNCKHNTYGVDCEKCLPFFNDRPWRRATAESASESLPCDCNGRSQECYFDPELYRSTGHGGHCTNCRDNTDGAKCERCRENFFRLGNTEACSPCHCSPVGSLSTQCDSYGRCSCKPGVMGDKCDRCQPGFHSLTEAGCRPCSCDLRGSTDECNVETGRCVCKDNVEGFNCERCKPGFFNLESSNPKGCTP", "experiment": "MST"}, "[6]": {"molecular_target": "B2", "experiment": "cross-linking; increasing crosslinker concentration; Supplementary Fig. 5a", "settings": "both partners purified"}, "[7]": {"molecular_target": "the molecule itself", "experiment": "cross-linking; increasing crosslinker concentration; Supplementary Fig. 5a"}, "[8]": {"molecular_target": "B2", "experiment": "rotary-shadowing electron microscopy; images of the Net4-ΔC-γ1LN-LEa1-4 complex", "settings": "both partners purified"}, "[9]": {"molecular_target": "B2", "experiment": "MST; 2 nM labelled γ1LN-LEa1-4; Net4 0.08-1,000 nM, Net4 mutants 0.45-4,000 nM; 50 mM Tris/HCl pH 7.4, 150 mM NaCl, 2 mM CaCl2, 3% BSA; NanoTemper Monolith NT.115", "settings": "both partners purified"}, "[10]": {"molecular_target": "T2, N-terminal laminin fragment β1LN-LEa1-4 (Homo sapiens, UniProt P07942 31-509)", "T2 construct": "also called laminin β1; Lmβ1; source: HEK293, stably transfected, purified (streptactin-sepharose, thrombin digestion, SEC); not shown: double Strep II, N-terminal, cleaved", "T2 sequence (P07942 31-509)": "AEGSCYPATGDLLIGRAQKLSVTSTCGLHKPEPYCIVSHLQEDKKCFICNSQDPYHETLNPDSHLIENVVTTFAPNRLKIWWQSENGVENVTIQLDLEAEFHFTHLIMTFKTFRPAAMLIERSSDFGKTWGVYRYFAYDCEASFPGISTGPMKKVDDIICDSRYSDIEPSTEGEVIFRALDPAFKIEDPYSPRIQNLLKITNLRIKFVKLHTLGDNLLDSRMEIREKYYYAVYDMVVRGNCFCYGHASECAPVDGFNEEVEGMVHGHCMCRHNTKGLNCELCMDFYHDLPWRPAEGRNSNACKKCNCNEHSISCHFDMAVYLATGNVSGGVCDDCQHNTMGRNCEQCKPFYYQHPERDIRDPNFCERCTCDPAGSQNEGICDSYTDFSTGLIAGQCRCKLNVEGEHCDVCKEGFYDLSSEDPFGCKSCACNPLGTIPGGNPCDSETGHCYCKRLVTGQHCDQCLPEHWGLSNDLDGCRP", "experiment": "SEC; analytical size-exclusion chromatography of single proteins and of mixtures", "settings": "both partners purified"}, "[11]": {"molecular_target": "B1", "experiment": "MST; 2 nM labelled γ1LN-LEa1-4; Net4 0.08-1,000 nM, Net4 mutants 0.45-4,000 nM; 50 mM Tris/HCl pH 7.4, 150 mM NaCl, 2 mM CaCl2, 3% BSA; NanoTemper Monolith NT.115", "settings": "both partners purified"}},
  "data": [
    {"molecule": "laminin β1 (from UniProt P02469)", "values": [
      {"measurement": "Kd", "setting": "[1]", "value": 5000, "unit": "nM"}
    ]},
    {"molecule": "Net4-ΔC^E195A,R199A (from UniProt Q9JI33 20-462) (domain or fragment)", "values": [
      {"measurement": "Kd", "setting": "[2]", "value": 66, "unit": "nM"}
    ]},
    {"molecule": "N-terminal laminin fragment α1LN-LEa1-4 (domain or fragment, Homo sapiens, UniProt P25391 18-453, looked up, also called laminin α1; source: HEK293, stably transfected, purified (streptactin-sepharose, thrombin digestion, SEC); not shown: double Strep II, N-terminal, cleaved) RQRGLFPAILNLASNAHISTNATCGEKGPEMFCKLVEHVPGRPVRNPQCRICDGNSANPRERHPISHAIDGTNNWWQSPSIQNGREYHWVTITLDLRQVFQVAYVIIKAANAPRPGNWILERSLDGTTFSPWQYYAVSDSECLSRYNITPRRGPPTYRADDEVICTSYYSRLVPLEHGEIHTSLINGRPSADDLSPKLLEFTSARYIRLRLQRIRTLNADLMTLSHREPKELDPIVTRRYYYSIKDISVGGMCICYGHASSCPWDETTKKLQCQCEHNTCGESCNRCCPGYHQQPWRPGTVSSGNTCEACNCHNKAKDCYYDESVAKQKKSLNTAGQFRGGGVCINCLQNTMGINCETCIDGYYRPHKVSPYEDEPCRPCNCDPVGSLSSVCIKDDLHSDLHNGKQPGQCPCKEGYTGEKCDRCQLGYKDYPTCVS", "values": [
      {"measurement": "binding result", "setting": "[3]", "value": "binds"}
    ]},
    {"molecule": "Net4-ΔC^ΔKAPGA (domain or fragment, Mus musculus, UniProt Q9JI33 20-462, looked up, the limits of the deletion are printed for the combined mutant; probably made like its parent m1; also called Net4 mutant in which the specific loop b (KAPGA) within LE1 was deleted) LNGVAGANSRCEKACNPRMGNLALGRKLRADTMCGQNATELFCFYSENADLTCRQPKCDKCNAAHSHLAHPPSAMADSSFRFPRTWWQSAEDVHREKIQLDLEAEFYFTHLIMVFKSPRPAAMVLDRSQDFGKTWKPYKYFATNCSATFGLEDDVVKKGAICTSRYSNPFPCTGGEVIFRALSPPYDIENPYSAKVQEQLKITNLRVRLLKRQSCPCQINDLNAKPHHFMHYAVYDFIVKGSCFCNGHADQCLPVEGFRPIFHVVHGRCMCKHNTAGSHCQHCAPLYNDRPWEAADGRTGAPNECRTCKCNGHADTCHFDVNVWEASGNRSGGVCNNCQHNTEGQHCQRCKPGFYRDLRRPFSAPDACKACSCHPVGSAILPFSSVTFCDPSNGDCPCKPGVAGPHCDRCMVGYWGFGDYGCRPCDCAGSCDPLTGDC", "values": [
      {"measurement": "Kd", "setting": "[4]", "value": "~50", "unit": "nM"}
    ]},
    {"molecule": "B1", "values": [
      {"measurement": "Kd", "setting": "[5]", "value": 2.26, "unit": "nM"},
      {"measurement": "stoichiometry N", "setting": "[6]", "value": 1},
      {"measurement": "stoichiometry N", "setting": "[7]", "value": 2}
    ]},
    {"molecule": "Net4 lacking the C-terminal domain (Net4-ΔC) (domain or fragment, Mus musculus, UniProt Q9JI33 20-462, looked up, lacks domain C); Two alternative constructs were cloned: one with an N-terminal His8 tag, one with an N-terminal double Strep II tag (not both on one chain); the tag was removed by thrombin; also called netrin-4; wild-type Net4; source: HEK293, stably transfected, purified (streptactin-sepharose or nickel TALON beads, thrombin digestion, SEC); not shown: double Strep II, N-terminal, cleaved; …) LNGVAGANSRCEKACNPRMGNLALGRKLRADTMCGQNATELFCFYSENADLTCRQPKCDKCNAAHSHLAHPPSAMADSSFRFPRTWWQSAEDVHREKIQLDLEAEFYFTHLIMVFKSPRPAAMVLDRSQDFGKTWKPYKYFATNCSATFGLEDDVVKKGAICTSRYSNPFPCTGGEVIFRALSPPYDIENPYSAKVQEQLKITNLRVRLLKRQSCPCQINDLNAKPHHFMHYAVYDFIVKGSCFCNGHADQCLPVEGFRPIKAPGAFHVVHGRCMCKHNTAGSHCQHCAPLYNDRPWEAADGRTGAPNECRTCKCNGHADTCHFDVNVWEASGNRSGGVCNNCQHNTEGQHCQRCKPGFYRDLRRPFSAPDACKACSCHPVGSAILPFSSVTFCDPSNGDCPCKPGVAGPHCDRCMVGYWGFGDYGCRPCDCAGSCDPLTGDC", "values": [
      {"measurement": "Kd", "setting": "[5]", "value": 2.29, "unit": "nM"},
      {"measurement": "stoichiometry N", "setting": "[8]", "value": 1},
      {"measurement": "Kd", "setting": "[9]", "value": "~2", "unit": "nM"}
    ]},
    {"molecule": "B2", "values": [
      {"measurement": "binding result", "setting": "[10]", "value": "binds"},
      {"measurement": "Kd", "setting": "[11]", "value": "~2", "unit": "nM"}
    ]}
  ]
}
